In patent EP4676971A2 (dated 2026):
Changes are numbered by the printed parent chain. Where “and” joins values, the source holds several entries; their conditions need not be identical. Identical values can stand only once.

T1: DR3 receptor on human TF-1 cells (human, UniProt Q93038 25-417)
T1 construct: whole, on cells; also called death receptor 3; TNFRSF25
T1 sequence (looked up): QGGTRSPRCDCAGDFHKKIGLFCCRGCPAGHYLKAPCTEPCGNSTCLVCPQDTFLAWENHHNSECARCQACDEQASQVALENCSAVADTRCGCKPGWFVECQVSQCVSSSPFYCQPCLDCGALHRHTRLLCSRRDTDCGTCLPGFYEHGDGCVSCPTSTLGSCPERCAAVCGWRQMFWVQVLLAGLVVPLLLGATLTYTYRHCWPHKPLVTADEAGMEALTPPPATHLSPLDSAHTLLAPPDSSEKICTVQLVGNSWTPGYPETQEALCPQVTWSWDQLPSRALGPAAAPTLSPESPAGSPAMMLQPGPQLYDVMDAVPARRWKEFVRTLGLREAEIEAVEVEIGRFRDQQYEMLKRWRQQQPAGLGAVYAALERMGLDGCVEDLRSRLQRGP

T2: TNFSF6 (FasL) (UniProt P48023 134-281, limits assumed)
T2 sequence (looked up): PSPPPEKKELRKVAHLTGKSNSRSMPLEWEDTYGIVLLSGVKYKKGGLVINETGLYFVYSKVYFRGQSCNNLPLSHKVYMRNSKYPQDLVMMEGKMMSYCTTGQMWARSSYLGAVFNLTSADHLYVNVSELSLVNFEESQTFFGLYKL

T3: recombinant cynomolgus monkey TL1A protein (cynomolgus monkey, UniProt G7PRK8 72-251)
T3 construct: also called cynomolgus TL1A
T3 sequence: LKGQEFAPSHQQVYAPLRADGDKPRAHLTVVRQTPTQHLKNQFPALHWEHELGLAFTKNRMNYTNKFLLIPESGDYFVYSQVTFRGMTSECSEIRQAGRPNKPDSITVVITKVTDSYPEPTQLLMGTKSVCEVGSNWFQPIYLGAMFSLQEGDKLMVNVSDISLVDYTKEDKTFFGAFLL

T4: recombinant rat TL1A protein (rat, UniProt Q8K3Y7 76-252, limits assumed)
T4 sequence (looked up): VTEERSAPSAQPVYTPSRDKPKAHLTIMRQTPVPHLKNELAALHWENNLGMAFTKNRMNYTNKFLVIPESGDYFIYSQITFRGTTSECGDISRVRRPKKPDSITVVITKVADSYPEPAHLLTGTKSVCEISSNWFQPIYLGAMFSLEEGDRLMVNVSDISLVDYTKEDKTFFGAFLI

T5: recombinant mouse TL1A protein (mouse, UniProt Q5UBV8 76-252, limits assumed)
T5 construct: also called murine TL1A
T5 sequence (looked up): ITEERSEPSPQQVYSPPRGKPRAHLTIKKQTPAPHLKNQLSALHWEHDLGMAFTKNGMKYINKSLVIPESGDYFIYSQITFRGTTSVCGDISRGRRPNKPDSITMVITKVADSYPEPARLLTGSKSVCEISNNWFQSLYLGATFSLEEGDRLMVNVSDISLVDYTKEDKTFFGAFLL

T6: membrane-bound human TL1A on TNFSF15/HEK293 cells (human, UniProt O95150 1-251)
T6 construct: whole, on cells; also called membrane-associated TL1A
T6 sequence (looked up): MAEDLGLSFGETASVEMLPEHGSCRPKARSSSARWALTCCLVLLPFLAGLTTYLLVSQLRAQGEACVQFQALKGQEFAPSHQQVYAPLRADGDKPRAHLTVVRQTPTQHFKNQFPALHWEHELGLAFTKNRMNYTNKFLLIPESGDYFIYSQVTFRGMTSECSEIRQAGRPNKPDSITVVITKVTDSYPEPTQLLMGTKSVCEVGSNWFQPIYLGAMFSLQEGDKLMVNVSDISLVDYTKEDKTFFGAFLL

T7: cynomolgus monkey TL1A produced by PBMCs in stimulated whole blood (cynomolgus monkey, UniProt G7PRK8 72-251)
T7 sequence: T3 sequence

B1: recombinant human TL1A protein (ligand, UniProt O95150 72-251, looked up)
chain: T3 sequence with L39F, V78I
notes: also called tumor necrosis factor-like cytokine 1A; TNFSF15
B2: anti-TL1A antibody A219 (antibody, V domains shown)
VH: QVQLVQSGAEVKKPGASVKVSCKASGFDIQDTYMHWVKQRPGQGLEWMGRIDPASGHTKYDPKFQVRVTITRDTSTSTVYLELSSLRSEDTAVYYCARSGGLPDVWGQGTTVTVSS
VL: EIVLTQSPGTLSLSPGERATLSCRASSSVSYMYWYQQKPGQAPRPLIYATSNLASGIPDRFSGSGSGTDFTLTISRLEPEDFAVYYCQQWEGNPRTFGGGTKLEIK
notes: Humanized monoclonal antibody; Molecular weight 143938 Daltons; The constant region is not tied to A219 in the readable text

Assays:
[1] = target: T1, DR3 receptor on human TF-1 cells; experiment: TF-1 cell caspase activation assay
[2] = target: TNFSF14 (LIGHT) (UniProt O43557 74-240, limits assumed); experiment: ELISA
[3] = target: TNFSF10 (TRAIL) (UniProt P50591 114-281, limits assumed); experiment: ELISA
[4] = target: T2, TNFSF6 (FasL); experiment: ELISA
[5] = target: T3, recombinant cynomolgus monkey TL1A …; experiment: surface plasmon resonance (SPR), recombinant TL1A protein
[6] = target: B1; experiment: as above
[7] = target: T4, recombinant rat TL1A protein; experiment: ELISA on recombinant TL1A protein
[8] = target: T5, recombinant mouse TL1A protein; experiment: ELISA on recombinant TL1A protein
[9] = target: T6, membrane-bound human TL1A on …; experiment: binding to TNFSF15/HEK293 cells that carry human TL1A, dose-dependent
[10] = target: T3, recombinant cynomolgus monkey TL1A …; experiment: ELISA, binding to recombinant TL1A protein
[11] = target: T7, cynomolgus monkey TL1A produced by …; experiment: cell-based or functional assay
[12] = target: T3, recombinant cynomolgus monkey TL1A …; experiment: cell-based or functional assay
[13] = target: B1; experiment: cell-based or functional assay

Chain of TNFSF10 (TRAIL) (P50591 114-281 limits assumed): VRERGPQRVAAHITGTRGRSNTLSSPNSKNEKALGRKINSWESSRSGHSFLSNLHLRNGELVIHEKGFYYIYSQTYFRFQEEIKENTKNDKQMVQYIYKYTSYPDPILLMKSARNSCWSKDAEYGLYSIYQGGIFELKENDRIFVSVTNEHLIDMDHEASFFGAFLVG
Chain of TNFSF14 (LIGHT) (O43557 74-240 limits assumed): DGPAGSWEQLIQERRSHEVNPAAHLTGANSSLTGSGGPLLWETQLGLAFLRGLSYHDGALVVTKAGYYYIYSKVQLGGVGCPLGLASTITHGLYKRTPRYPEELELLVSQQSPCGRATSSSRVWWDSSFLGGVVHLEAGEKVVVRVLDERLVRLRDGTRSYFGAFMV

| binding result [1] | binding result [2] | binding result [3] | binding result [4] | Kd [5] [pM] | Kd [6] [pM] | binding result [7] | binding result [8] | EC50 [9] [pM] | IC50 [10] [pM] | inhibition of the IFN-gamma response in monkey whole blood (mean IC50) [11] | inhibition of TL1A-induced caspase activation in TF-1 cells (IC50) [12] [pM] | inhibition of TL1A-induced caspase activation in TF-1 cells (IC50) [13] [pM] | Binder |
| --- | --- | --- | --- | --- | --- | --- | --- | --- | --- | --- | --- | --- | --- |
| binds | – | – | – | – | – | – | – | – | – | – | – | – | B1 |
| – | no binding | no binding | no binding | 40 | 60 | no binding | no binding | 17400 | 470 | 1.54 nM and 289 ng/mL | 590 | 270 | B2 |
